The source of these data is publication PMC7397465, “Crystal structure of the Rab-binding domain of Rab11 family-interacting protein 2” (Acta Crystallographica. Section F, Structural Biology …, 2020).

This series deals with the molecule itself. The series can be described thus: crystal structure; vapor diffusion, 298 K; protein 6 mg/ml in 150 mM NaCl, 10 mM Tris-HCl, 1 mM DTT pH 7.5; reservoir 0.01 M cobalt chloride, 0.1 M sodium acetate pH 4.8, 1 M 1,6-hexanediol; 2.3 A; four monomers in the asymmetric unit.

B1: Rab-binding domain of Rab11 family-interacting protein 2 (domain or fragment, Homo sapiens)
chain: GSHMSNPFDATAGYRSLTYEEVLQELVKHKELLRRKDTHIRELEDYIDNLLVRVMEETPSILRVPYEPSRKAGKFSNS
notes: not FIP2 residues by the stated limits 439-512; Expression vector pNIC-Bsa4 with a TEV protease cleavage site; tag cleaved with TEV before crystallization; In the crystal at least the first seven and the last 15 residues are disordered (monomers seen from 445-451 to 496 or 497); also called FIP2; RBD of FIP2; source: Escherichia coli BL21(DE3), purified (nickel agarose, TEV cleavage, Mono Q, …)
In general, stoichiometry N refers to a count of units in the complex or per binding partner. With B1, the “stoichiometry N” value was 4.
